We go through 125 sequences from the supplement of paper PMC9112550, “Optimization of the antimicrobial peptide Bac7 by deep mutational scanning” (BMC Biology, 2022).

The subject of the data set is Escherichia coli TOP10. Kind of data set: shrunken log2 fold change of peptide-encoding DNA abundance (4.5 h post-induction vs induction); higher = less antimicrobial activity (less host growth inhibition). The settings on record: time post-induction: 4.5 h; library: site-saturation at positions 5, 18, 19, 20.
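Note: peptides expressed intracellularly from a pBAD plasmid library in pooled LB shake-flask culture, induced with 0.3% L-arabinose, DNA abundance read by NGS, three biological replicates, DESeq2 with apeglm shrinkage.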

Regarding RRIRSRPPRLPRPRPRPWNPPRP, the “shrunken log2 fold change” value was -0.00281.
The same measure for RRIRVRPPRLPRPRPRPTDWPRP: 0.255.
For the sequence RRIRCRPPRLPRPRPRPPNCPRP, the “shrunken log2 fold change” value came out at 0.0348.
On to RRIRDRPPRLPRPRPRPGCVPRP, for which the “shrunken log2 fold change” value came out at 0.616.
As to RRIRTRPPRLPRPRPRPKVLPRP, the “shrunken log2 fold change” value was -0.015.
The same measure for RRIRYRPPRLPRPRPRPFDAPRP: -0.485.
As to RRIRHRPPRLPRPRPRPWYGPRP, the “shrunken log2 fold change” value is -0.779.
Turning to RRIRLRPPRLPRPRPRPRMEPRP, the “shrunken log2 fold change” value turned out to be 0.123.
RRIRNRPPRLPRPRPRPLGQPRP: the “shrunken log2 fold change” value came out at 0.0394.
Under RRIRYRPPRLPRPRPRPLCVPRP stands -0.722.
As for RRIRTRPPRLPRPRPRPPKFPRP, the “shrunken log2 fold change” value is -0.025.
For RRIRSRPPRLPRPRPRPKISPRP, the “shrunken log2 fold change” value came to 0.0778.
As for RRIRIRPPRLPRPRPRPPDKPRP, the “shrunken log2 fold change” value is -0.0243.
Turning to RRIRERPPRLPRPRPRPEAFPRP, the “shrunken log2 fold change” value stood at 0.0868.
In the case of RRIRHRPPRLPRPRPRPEIWPRP, the “shrunken log2 fold change” value is -0.0396.
For the sequence RRIRWRPPRLPRPRPRPTMLPRP, the “shrunken log2 fold change” value came out at 0.101.
Under RRIRGRPPRLPRPRPRPCPDPRP stands 0.359; under RRIRFRPPRLPRPRPRPLCMPRP, -0.888.
Consider RRIRYRPPRLPRPRPRPCNTPRP, for which the “shrunken log2 fold change” value is -0.425.
For the sequence RRIRRRPPRLPRPRPRPHFMPRP, the “shrunken log2 fold change” value is -0.141.
With RRIRTRPPRLPRPRPRPIPNPRP, the “shrunken log2 fold change” value came out at 0.0695.
Regarding RRIRKRPPRLPRPRPRPTMAPRP, the “shrunken log2 fold change” value came out at 0.638.
The same measure for RRIRPRPPRLPRPRPRPSMIPRP: -0.547.
Consider RRIRMRPPRLPRPRPRPDQCPRP, for which the “shrunken log2 fold change” value turned out to be 0.0192.
As to RRIRERPPRLPRPRPRPQMVPRP, the “shrunken log2 fold change” value was -0.0708.
As for RRIRHRPPRLPRPRPRPIRAPRP, the “shrunken log2 fold change” value was determined as 0.0218.
Consider RRIRDRPPRLPRPRPRPTCHPRP, for which the “shrunken log2 fold change” value was 0.0627.
With RRIRQRPPRLPRPRPRPTTKPRP, the “shrunken log2 fold change” value was -0.122.
For the sequence RRIRDRPPRLPRPRPRPMGNPRP, the “shrunken log2 fold change” value was -0.107.
Consider RRIRFRPPRLPRPRPRPWTWPRP, for which the “shrunken log2 fold change” value stood at 0.0306.
As for RRIRSRPPRLPRPRPRPESFPRP, the “shrunken log2 fold change” value was -0.0898.
Under RRIRQRPPRLPRPRPRPNFLPRP stands -0.492; under RRIRSRPPRLPRPRPRPRCSPRP, 0.0579; under RRIRCRPPRLPRPRPRPAEEPRP, -0.314.
Take RRIRFRPPRLPRPRPRPGVDPRP: the “shrunken log2 fold change” value is -0.145.
Take RRIRIRPPRLPRPRPRPCEPPRP: the “shrunken log2 fold change” value was -0.28.
Turning to RRIRGRPPRLPRPRPRPNLHPRP, the “shrunken log2 fold change” value came to 0.303.
The same measure for RRIRMRPPRLPRPRPRPTIQPRP: 0.318; for RRIRPRPPRLPRPRPRPQHAPRP: 0.041; for RRIRIRPPRLPRPRPRPTFNPRP: -0.595.
With RRIRVRPPRLPRPRPRPEPTPRP, the “shrunken log2 fold change” value is 0.0442.
The same measure for RRIRKRPPRLPRPRPRPISAPRP: 0.164; for RRIRRRPPRLPRPRPRPRVHPRP: 0.264.
On to RRIRIRPPRLPRPRPRPGINPRP, for which the “shrunken log2 fold change” value is -0.603.
Consider RRIRDRPPRLPRPRPRPMFSPRP, for which the “shrunken log2 fold change” value was -0.142.
In the case of RRIRVRPPRLPRPRPRPITRPRP, the “shrunken log2 fold change” value is -0.0188.
On to RRIRARPPRLPRPRPRPAIDPRP, for which the “shrunken log2 fold change” value was 0.387.
Regarding RRIRDRPPRLPRPRPRPACNPRP, the “shrunken log2 fold change” value stood at 0.0741.
Regarding RRIRKRPPRLPRPRPRPGIYPRP, the “shrunken log2 fold change” value amounted to 0.107.
Take RRIRKRPPRLPRPRPRPCRSPRP: the “shrunken log2 fold change” value is -0.0126.
RRIRLRPPRLPRPRPRPLQFPRP: the “shrunken log2 fold change” value came to 0.0239.
Take RRIRWRPPRLPRPRPRPTYQPRP: the “shrunken log2 fold change” value is -0.325.
Take RRIRFRPPRLPRPRPRPIWHPRP: the “shrunken log2 fold change” value is -0.0746.
The same measure for RRIRSRPPRLPRPRPRPQTGPRP: 0.0318; for RRIRARPPRLPRPRPRPWCPPRP: -0.169; for RRIRQRPPRLPRPRPRPYYTPRP: -0.363.
For RRIRERPPRLPRPRPRPQDVPRP, the “shrunken log2 fold change” value is -0.177.
As to RRIRMRPPRLPRPRPRPFLSPRP, the “shrunken log2 fold change” value was -0.0215.
The same measure for RRIRVRPPRLPRPRPRPPQTPRP: 0.0537.
Under RRIRTRPPRLPRPRPRPLPRPRP stands 0.484; under RRIRRRPPRLPRPRPRPFLGPRP, 0.187; under RRIRVRPPRLPRPRPRPLDSPRP, -0.19.
Regarding RRIRTRPPRLPRPRPRPSTNPRP, the “shrunken log2 fold change” value is -0.488.
Regarding RRIRKRPPRLPRPRPRPDGMPRP, the “shrunken log2 fold change” value is -0.00135.
Under RRIRTRPPRLPRPRPRPMERPRP stands 0.0039.
With RRIRERPPRLPRPRPRPMNVPRP, the “shrunken log2 fold change” value was -0.00243.
Take RRIRSRPPRLPRPRPRPKYCPRP: the “shrunken log2 fold change” value is -0.263.
Take RRIRFRPPRLPRPRPRPYQKPRP: the “shrunken log2 fold change” value is -1.08.
On to RRIRKRPPRLPRPRPRPCKCPRP, for which the “shrunken log2 fold change” value was 0.0183.
Take RRIRKRPPRLPRPRPRPCIFPRP: the “shrunken log2 fold change” value was -0.0101.
In the case of RRIRKRPPRLPRPRPRPLWVPRP, the “shrunken log2 fold change” value amounted to 0.0688.
With RRIRTRPPRLPRPRPRPPAEPRP, the “shrunken log2 fold change” value was 0.378.
RRIRMRPPRLPRPRPRPNDTPRP: the “shrunken log2 fold change” value worked out at 0.11.
Turning to RRIRSRPPRLPRPRPRPHIPPRP, the “shrunken log2 fold change” value is -0.836.
For the sequence RRIRHRPPRLPRPRPRPHRKPRP, the “shrunken log2 fold change” value was -0.351.
Under RRIRTRPPRLPRPRPRPFRPPRP stands 0.0775; under RRIRPRPPRLPRPRPRPLHFPRP, -0.207; under RRIRKRPPRLPRPRPRPPCDPRP, 0.415.
In the case of RRIRGRPPRLPRPRPRPQAGPRP, the “shrunken log2 fold change” value stood at 0.695.
As to RRIRRRPPRLPRPRPRPNTIPRP, the “shrunken log2 fold change” value is -0.372.
Under RRIRARPPRLPRPRPRPSMWPRP stands 0.45; under RRIRDRPPRLPRPRPRPKSVPRP, 0.0458; under RRIRNRPPRLPRPRPRPCSIPRP, -0.000921.
Turning to RRIRYRPPRLPRPRPRPHATPRP, the “shrunken log2 fold change” value is -0.191.
Turning to RRIRQRPPRLPRPRPRPEWPPRP, the “shrunken log2 fold change” value was -0.0954.
In the case of RRIRCRPPRLPRPRPRPKHFPRP, the “shrunken log2 fold change” value was -0.209.
With RRIRFRPPRLPRPRPRPNNHPRP, the “shrunken log2 fold change” value was -0.571.
For the sequence RRIRLRPPRLPRPRPRPPYEPRP, the “shrunken log2 fold change” value was -0.468.
The same measure for RRIRSRPPRLPRPRPRPFPCPRP: -0.124.
With RRIRNRPPRLPRPRPRPEYNPRP, the “shrunken log2 fold change” value was -0.678.
Turning to RRIRTRPPRLPRPRPRPQWSPRP, the “shrunken log2 fold change” value is -0.431.
Take RRIRLRPPRLPRPRPRPWGYPRP: the “shrunken log2 fold change” value is -0.359.
Turning to RRIRHRPPRLPRPRPRPTQSPRP, the “shrunken log2 fold change” value amounted to 0.113.
Take RRIRERPPRLPRPRPRPVIHPRP: the “shrunken log2 fold change” value is -0.106.
In the case of RRIRRRPPRLPRPRPRPQMYPRP, the “shrunken log2 fold change” value is -0.183.
Under RRIRWRPPRLPRPRPRPCKCPRP stands -0.0392; under RRIRVRPPRLPRPRPRPHGLPRP, 0.0861.
For RRIRMRPPRLPRPRPRPNRNPRP, the “shrunken log2 fold change” value was -0.292.
As for RRIRTRPPRLPRPRPRPTGNPRP, the “shrunken log2 fold change” value is -0.445.
Under RRIRKRPPRLPRPRPRPNLFPRP stands 0.00721.
For RRIRLRPPRLPRPRPRPFVYPRP, the “shrunken log2 fold change” value is -0.476.
Under RRIRKRPPRLPRPRPRPDNWPRP stands 0.235; under RRIRNRPPRLPRPRPRPRTEPRP, -0.279; under RRIRSRPPRLPRPRPRPDELPRP, -0.0328.
For the sequence RRIRWRPPRLPRPRPRPDSRPRP, the “shrunken log2 fold change” value is -0.251.
The same measure for RRIRDRPPRLPRPRPRPMCRPRP: -0.0461; for RRIRFRPPRLPRPRPRPLVMPRP: -0.335.
Turning to RRIRTRPPRLPRPRPRPSHWPRP, the “shrunken log2 fold change” value is -0.148.
For RRIRQRPPRLPRPRPRPATNPRP, the “shrunken log2 fold change” value is -0.0811.
For the sequence RRIRHRPPRLPRPRPRPDHFPRP, the “shrunken log2 fold change” value is -0.169.
As for RRIRARPPRLPRPRPRPELIPRP, the “shrunken log2 fold change” value came out at 0.606.
As to RRIRCRPPRLPRPRPRPPNSPRP, the “shrunken log2 fold change” value is 0.0267.
Consider RRIRWRPPRLPRPRPRPSEPPRP, for which the “shrunken log2 fold change” value is -0.266.
On to RRIRIRPPRLPRPRPRPQLKPRP, for which the “shrunken log2 fold change” value was -0.456.
Turning to RRIRVRPPRLPRPRPRPHDTPRP, the “shrunken log2 fold change” value is -0.212.
For the sequence RRIRIRPPRLPRPRPRPWFHPRP, the “shrunken log2 fold change” value was -0.768.
On to RRIRVRPPRLPRPRPRPMQNPRP, for which the “shrunken log2 fold change” value is 0.111.
Consider RRIRSRPPRLPRPRPRPFSQPRP, for which the “shrunken log2 fold change” value was -1.07.
For the sequence RRIRERPPRLPRPRPRPGIYPRP, the “shrunken log2 fold change” value is -0.91.
The same measure for RRIRFRPPRLPRPRPRPHPNPRP: -0.31; for RRIRDRPPRLPRPRPRPSTMPRP: 0.0367; for RRIRTRPPRLPRPRPRPSDAPRP: -0.174.
For the sequence RRIRWRPPRLPRPRPRPVLHPRP, the “shrunken log2 fold change” value is -0.0358.
Under RRIRRRPPRLPRPRPRPSAHPRP stands -0.0606; under RRIRERPPRLPRPRPRPHIVPRP, -0.0314.
